Experimental findings from US20220153832A1 (PIONYR IMMUNOTHERAPEUTICS, published 2022) are described below.

A word on the EC50: it is the midpoint of the concentration-response curve.

For experiment [1], the target named is T1, Cynomolgus MARCO, full length, on cells (cynomolgus, UniProt A0A2K5X0Z2 1-519).
T1 construct: whole, on cells; also called cyno MARCO; CyMARCO
T1 sequence: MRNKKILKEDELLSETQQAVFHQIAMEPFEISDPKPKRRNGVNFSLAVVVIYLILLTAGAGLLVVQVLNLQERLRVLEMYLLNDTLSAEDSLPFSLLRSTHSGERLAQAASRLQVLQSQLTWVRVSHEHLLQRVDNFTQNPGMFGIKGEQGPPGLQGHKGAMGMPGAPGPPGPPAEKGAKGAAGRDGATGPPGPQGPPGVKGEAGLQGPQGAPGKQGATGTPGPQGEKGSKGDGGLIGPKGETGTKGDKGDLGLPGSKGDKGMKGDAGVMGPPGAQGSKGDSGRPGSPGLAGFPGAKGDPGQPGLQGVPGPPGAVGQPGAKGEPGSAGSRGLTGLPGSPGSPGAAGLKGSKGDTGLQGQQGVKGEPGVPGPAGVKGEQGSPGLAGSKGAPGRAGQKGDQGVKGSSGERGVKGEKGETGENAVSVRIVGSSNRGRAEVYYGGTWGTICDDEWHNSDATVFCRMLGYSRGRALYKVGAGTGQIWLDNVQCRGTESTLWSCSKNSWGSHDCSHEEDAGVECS
The experiment in a line: flow cytometry, cells overexpressing cyno MARCO. Background: In flow cytometry, cells or beads pass a laser one at a time.

The target of experiment [2] is T2, human MARCO (R&D biosystems), recombinant, coated in the LDL competition assay (human, UniProt Q9UEW3 70-520, limits assumed).
T2 construct: Bought protein
T2 sequence (looked up): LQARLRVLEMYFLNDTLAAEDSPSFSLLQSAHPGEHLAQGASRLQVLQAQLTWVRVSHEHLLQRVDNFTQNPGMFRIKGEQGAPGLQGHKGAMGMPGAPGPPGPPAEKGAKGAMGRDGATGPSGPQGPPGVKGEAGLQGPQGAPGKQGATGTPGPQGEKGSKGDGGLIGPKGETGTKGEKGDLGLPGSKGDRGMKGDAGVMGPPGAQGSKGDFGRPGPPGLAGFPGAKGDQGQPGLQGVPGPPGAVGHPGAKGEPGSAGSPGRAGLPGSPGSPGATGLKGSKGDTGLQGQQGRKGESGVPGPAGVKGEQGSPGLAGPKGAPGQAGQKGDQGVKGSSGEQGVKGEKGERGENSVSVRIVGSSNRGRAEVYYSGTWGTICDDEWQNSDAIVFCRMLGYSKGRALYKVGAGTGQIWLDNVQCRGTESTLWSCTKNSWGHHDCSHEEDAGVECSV
The experiment in a line: LDL competition on coated human MARCO (MSD), competitor biotinylated hLDL. How it is done: A high-binding, 96-well MSD plate was coated with 4 μg/ml mouse MARCO or 4 μg/ml human MARCO (R&D biosystems). After the plate was blocked with PBST and 5% BSA for an hour, titrated anti-mouse or anti-human MARCO antibodies were added to the plate and incubated for 30 minutes. Biotinylated hLDL (860 pM or 2 μg/ml) were added to the antibody, and the antibody/LDL mixture was incubated for an hour to allow the mixture to reach binding equilibrium. The plates were washed and bound biotinylated LDL was detected with Sulfo-tagged streptavidin that generates an electrocheminlumenscent signal when read buffer is added and electricity is applied to the electrodes in the MSD plate. IC50's were calculated using a 4-parameter curve fit in GraphPad Prism software.

Experiment [3] has as its target T3, Human Macrophage Receptor with Collagenous Structure (MARCO), full length, on cells (human, UniProt Q9UEW3 1-520).
T3 construct: the cell type is named under assay; also called huMARCO; HuMARCO
T3 sequence: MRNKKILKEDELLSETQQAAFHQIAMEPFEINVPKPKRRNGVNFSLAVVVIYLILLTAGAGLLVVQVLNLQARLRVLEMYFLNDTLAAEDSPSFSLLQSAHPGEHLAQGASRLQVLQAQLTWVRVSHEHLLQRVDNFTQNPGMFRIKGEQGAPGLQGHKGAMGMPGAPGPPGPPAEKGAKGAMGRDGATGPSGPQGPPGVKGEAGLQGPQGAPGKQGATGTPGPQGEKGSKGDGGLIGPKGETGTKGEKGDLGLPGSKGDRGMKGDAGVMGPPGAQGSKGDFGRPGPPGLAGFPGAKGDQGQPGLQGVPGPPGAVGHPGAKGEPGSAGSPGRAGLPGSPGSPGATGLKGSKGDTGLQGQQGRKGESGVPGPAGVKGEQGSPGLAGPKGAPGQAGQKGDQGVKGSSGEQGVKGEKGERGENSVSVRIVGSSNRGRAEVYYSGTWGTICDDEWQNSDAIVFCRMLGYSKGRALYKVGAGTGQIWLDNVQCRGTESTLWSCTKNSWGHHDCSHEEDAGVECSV
The experiment in a line: competition with AF488 E. coli binding to 293T cells expressing MARCO, flow cytometry. How it is done:
Zombie NIR viability dye (BioLegend) was prepared by diluting the stock 1000-fold in D-PBS and added to the cells. The cells were incubated with the dye for 10 min at RT in the dark. The reaction was quenched by adding 1 m of 4× Staining buffer (2% FBS in DBPS containing Ca²⁺), followed by centrifugation at 400×g for 5 min at 4° C. Cells were then plated in V-shaped 96 well plates at a density of 100,000 cells. A488-fluorescently labeled bacteria (E. coli from Invitrogen) was added at 10 μg/ml with the anti-human or anti-mouse antibodies of interest for a 30 min incubation at 37 C. Plates were then washed twice followed by resuspension in 100 ul of staining buffer for acquisition on the flow cytometer (Attune NxT, Life Technologies). Flow cytometry data were analyzed using FlowJo software (version 10.6.1) and data were processed and further analyzed in Microsoft Excel and GraphPad Prism software (version 8).
The newly generated rat hybridoma anti-human MARCO antibodies were characterized as previously described. Neither antibody bound to MSR1. Binding kinetics were determined via Multi Cycle Kinetics analysis using the huMARCO antigen as previously described.

For experiment [4], the target named is T3, Human Macrophage Receptor with …. The experiment in a line: flow cytometry, 293T HuMARCO cells. In short, it runs like this:
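Geometric mean fluorescence intensity from flow cytometry, analysed in FlowJo and Prism, served as the readout of binding to HEK293T cells carrying human or cynomolgus MARCO. Cells were stained with Zombie NIR for viability and plated at 100,000 cells/well. An 8-point three-fold antibody dilution from 100 nM in D-PBS/2% FBS/2 mM EDTA was applied for 1 hr on ice, followed by APC goat anti-mouse IgG for 30 min on ice, with acquisition on an Attune NxT.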

Changes are numbered by the printed parent chain.

B1: PI-3010-AB (antibody, human IgG1, kappa)
heavy: not shown
light: DIQMTQSPASLSTSLGETVSIECLASEGISNDLAWYQQKSGKSPQLLIYAASRLQDGVPSRFSGSGSGTRYSLKISGMQPEDEADYFCQQSYKYPLTFGSGTKLEIKRTVAAPSVFIFPPSDEQLKSGTASVVCLLNNFYPREAKVQWKVDNALQSGNSQESVTEQDSKDSTYSLSSTLTLSKADYEKHKVYACEVTHQGLSSPVTKSFNRGEC
Turning to B1, the EC50 in experiment [1] worked out at 1.48 nM.

B2: PI-HX-3061 (antibody, rat IgG2a)
heavy: EVQLVESGGGLVQPGSSLKLSCVASKFTFSNYGMNWIRQAPKKGLEWIALIYYNSNNKYYADSVKGRFTISRDNSKNTLYLEMNSLRSEDTAMYYCAKSLTGGSDYFDSWGQGVMVTVSSAETTAPSVYPLAPGTALKSNSMVTLGCLVKGYFPEPVTVTWNSGALSSGVHTFPAVLQSGLYTLTSSVTVPSSTWPSQTVTCNVAHPASSTKVDKKIVPRNCGGDCKPCICTGSEVSSVFIFPPKPKDVLTITLTPKVTCVVVDISQDDPEVHFSWFVDDVEVHTAQTRPPEEQFNSTFRSVSELPILHQDWLNGRTFRCKVTSAAFPSPIEKTISKPEGRTQVPHVYTMSPTKEEMTQNEVSITCMVKGFYPPDIYVEWQMNGQPQENYKNTPPTMDTDGSYFLYSKLNVKKEKWQQGNTFTCSVLHEGLHNHHTEKSLSHSP
light: DVQMTQSPSYLAASPGESVSISCKASKSIGTFLAWYQEKPEKTNKLLIYSGSTLQSGTPSRFSGSGSGTDFTLTIRNLEPEDFAVYYCQQHDEYPFTFGSGTKLEIKRADAAPTVSIFPPSTEQLATGGASVVCLMNNFYPRDISVKWKIDGTERRDGVLDSVTDQDSKDSTYSMSSTLSLTKADYESHNLYTCEVVHKTSSSPVVKSFNRNEC
notes: Parental rat hybridoma, rat IgG2a; cross reactive with human and mouse MARCO
Turning to B2, the values for the EC50 in experiment [2] and in experiment [3] were 8.2 nM and 0.52 nM, respectively.

B3: PI-HX-3031 (antibody)
heavy: QVQLKESGPGLVQPSQTLSLTCTVSGFSLTSYHVSWVRQPPGKGLEWMGAIWTGGSIAYNSLLKSRLSISRDTSKSQVFLKMNSLQTEDTATYYCARDLSDYYSSYTSFDYWGQGVMVTVSTAETTAPSVYPLAPGTALKSNSMVTLGCLVKGYFPEPVTVTWNSGALSSGVHTFPAVLQSGLYTLTSSVTVPSSTWSSQAVTCNVAHPASSTKVDKKIVPRECNPCGCTGSEVSSVFIFPPKTKDVLTITLTPKVTCVVVDISQNDPEVRFSWFIDDVEVHTAQTHAPEKQSNSTLRSVSELPIVHRDWLNGKTFKCKVNSGAFPAPIEKSISKPEGTPRGPQVYTMAPPKEEMTQSQVSITCMVKGFYPPDIYTEWKMNGQPQENYKNTPPTMDTDGSYFLYSKLNVKKETWQQGNTFTCSVLHEGLHNHHTEKSLSHSP
light: DIQMTQSPASLSTSLGETVSIECLASEGISNDLAWYQQKSGKSPQLLIYAASRLQDGVPSRFSGSGSGTRYSLKISGMQPEDEADYFCQQSYKYPLTFGSGTKLEIKRADAAPTVSIFPPSTEQLATGGASVVCLMNNFYPRDISVKWKIDGTERRDGVLDSVTDQDSKDSTYSMSSTLSLTKADYESHNLYTCEVVHKTSSSPVVKSFNRNEC
notes: Parental rat hybridoma, rat IgG2a
In turn, B3 returned an EC50 in experiment [3] of 0.18 nM.

B4: PI-HX-3043 (antibody, rat IgG2a)
heavy: QVNLLQSRAALVKPGASVKLSCKASGYTFTDYYLHWVKQSHAKSLEWIGYINPNNAYTSYNEKFKSKATLTVDKSTNTAYMELSRLTSADSATYYCARDTTDYYNLHFAYWGQGTLVTVSSAETTAPSVYPLAPGTALKSNSMVTLGCLVKGYFPEPVTVTWNSGALSSGVHTFPAVLQSGLYTLTSSVTVPSSTWSSQAVTCNVAHPASSTKVDKKIVPRECNPCGCTGSEVSSVFIFPPKTKDVLTITLTPKVTCVVVDISQNDPEVRFSWFIDDVEVHTAQTHAPEKQSNSTLRSVSELPIVHRDWLNGKTFKCKVNSGAFPAPIEKSISKPEGTPRGPQVYTMAPPKEEMTQSQVSITCMVKGFYPPDIYTEWKMNGQPQENYKNTPPTMDTDGSYFLYSKLNVKKETWQQGNTFTCSVLHEGLHNHHTEKSLSHSP
light: B3 light with T13A, A25T, A50D, Q55E, P80T
notes: as for B3
For B4, the EC50 in experiment [2] was 3.4 nM.

B5: PI-3015-AB (antibody, human IgG1, kappa)
heavy: not shown
light: DIQMTQSPSSLSASVGDRVTITCRASEGISNDLAWYQQKPGKAPKLLIYAASRLQSGVPSRFSGSGSGTDYTLTISSMQPEDFATYYCQQSYKYPLTFGQGTKLEIKRTVAAPSVFIFPPSDEQLKSGTASVVCLLNNFYPREAKVQWKVDNALQSGNSQESVTEQDSKDSTYSLSSTLTLSKADYEKHKVYACEVTHQGLSSPVTKSFNRGEC
In experiment [1], B5 had an EC50 of 1.73 nM.

B6: PI-HX-3021 (antibody, V domains shown)
VH: QVRLVQSGTALVRPGASVRMSCTASGYSFTDYWVSWVKQSHGQSLEWIGEIYPNSGTTNFNEKFEGKATLTVDKSTSTAYMELSRLTSEDSAIYYCTGEGTFDYWGQGVMVTVSS
VL: EIVLTQSPTTMAASPGEKVTITCRPSSSLSNMHWFQQKSGTSPKPWIYDTSKLASGVPDRFSGSGSGTSYSLTISSMEAEDAATYYCLQRSSYPPTFGAGTKLELK
notes: Rat IgG2a hybridoma antibody; Not the effector dead PI-3021; also called PI-3007 (name of the recombinant form)
With B6, the binding result in experiment [4] is recorded as “no binding”.

B7: PI-HX-3016 (antibody, rat IgG1, V domains shown)
VH: EVQLVESGGGLVKPGASLKLSCVASGFTFSDDWMNWVRQTPGKAMEWIGDIKYDGSYTNYVPSLKNRLTISRDNAKNTLYLQMTNVRSEDTATYYCTSGGVFDYWGQGVMVTVSS
VL: B6 VL with T5S, P25A, L29V, N31Y, S92G, L105V
notes: Rat IgG1 hybridoma antibody
For the molecule B7, the binding result in experiment [4] is listed as “no binding”.
